Experimental data published in the MegaScale stability set (Tsuboyama et al. 2023).

B1: EEHEE_rd3_0130 (parent)
chain: TKIIVNGKTFTAPTEEEAQKIAEKLAKKAGLTVHKKNGTFELK

Variants of: B1
Assay: folding stability dG (cDNA display proteolysis); higher = more stable
Conditions: PBS, room temperature

| Variant | folding stability dG |
| --- | --- |
| TKIIVNGKTFTIPTEEEAQKIAEKLAKKAGLTVHKKNGTFELK [A12I] | 1.26 kcal/mol |
| TKIIVNGKTFTKPTEEEAQKIAEKLAKKAGLTVHKKNGTFELK [A12K] | -0.014 kcal/mol |
| TKIIVNGKTFTHPTEEEAQKIAEKLAKKAGLTVHKKNGTFELK [A12H] | 0.346 kcal/mol |
| TKIIVNGKTFTRPTEEEAQKIAEKLAKKAGLTVHKKNGTFELK [A12R] | 0.461 kcal/mol |
| TKIIVNGKTFTYPTEEEAQKIAEKLAKKAGLTVHKKNGTFELK [A12Y] | 1.63 kcal/mol |
| TKIIVNGKTFTQPTEEEAQKIAEKLAKKAGLTVHKKNGTFELK [A12Q] | -0.091 kcal/mol |
| TKIIVNGKTFTVPTEEEAQKIAEKLAKKAGLTVHKKNGTFELK [A12V] | 1.34 kcal/mol |
| TKIIVNGKTFTSPTEEEAQKIAEKLAKKAGLTVHKKNGTFELK [A12S] | 0.182 kcal/mol |
| TKIIVNGKTFTNPTEEEAQKIAEKLAKKAGLTVHKKNGTFELK [A12N] | -0.407 kcal/mol |
| TKIIVNGKTFTFPTEEEAQKIAEKLAKKAGLTVHKKNGTFELK [A12F] | 1.81 kcal/mol |
| TKIIVNGKTFTLPTEEEAQKIAEKLAKKAGLTVHKKNGTFELK [A12L] | 1.19 kcal/mol |
| TKIIVNGKTFTDPTEEEAQKIAEKLAKKAGLTVHKKNGTFELK [A12D] | -0.138 kcal/mol |
| TKIIVNGKTFTGPTEEEAQKIAEKLAKKAGLTVHKKNGTFELK [A12G] | 0.091 kcal/mol |
| TKIIVNGKTFTTPTEEEAQKIAEKLAKKAGLTVHKKNGTFELK [A12T] | 0.083 kcal/mol |
| TKIIVNGKTFTMPTEEEAQKIAEKLAKKAGLTVHKKNGTFELK [A12M] | 1.02 kcal/mol |
| TKIIVNGKTFTEPTEEEAQKIAEKLAKKAGLTVHKKNGTFELK [A12E] | -0.465 kcal/mol |
| TKIIVNGKTFTWPTEEEAQKIAEKLAKKAGLTVHKKNGTFELK [A12W] | 0.836 kcal/mol |
| TKIIVNGKTFTAPVEEEAQKIAEKLAKKAGLTVHKKNGTFELK [T14V] | -0.396 kcal/mol |
| TKIIVNGKTFTAPREEEAQKIAEKLAKKAGLTVHKKNGTFELK [T14R] | -0.419 kcal/mol |
| TKIIVNGKTFTAPHEEEAQKIAEKLAKKAGLTVHKKNGTFELK [T14H] | -0.337 kcal/mol |

| Variant | folding stability dG |
| --- | --- |
| TKIIVNGKTFTAPDEEEAQKIAEKLAKKAGLTVHKKNGTFELK [T14D] | 0.286 kcal/mol |
| TKIIVNGKTFTAPAEEEAQKIAEKLAKKAGLTVHKKNGTFELK [T14A] | -0.233 kcal/mol |
| TKIIVNGKTFTAPLEEEAQKIAEKLAKKAGLTVHKKNGTFELK [T14L] | -0.412 kcal/mol |
| TKIIVNGKTFTAPIEEEAQKIAEKLAKKAGLTVHKKNGTFELK [T14I] | -0.354 kcal/mol |
| TKIIVNGKTFTAPPEEEAQKIAEKLAKKAGLTVHKKNGTFELK [T14P] | -0.49 kcal/mol |
| TKIIVNGKTFTAPQEEEAQKIAEKLAKKAGLTVHKKNGTFELK [T14Q] | -0.297 kcal/mol |
| TKIIVNGKTFTAPNEEEAQKIAEKLAKKAGLTVHKKNGTFELK [T14N] | 0.897 kcal/mol |
| TKIIVNGKTFTAPKEEEAQKIAEKLAKKAGLTVHKKNGTFELK [T14K] | -0.4 kcal/mol |
| TKIIVNGKTFTAPGEEEAQKIAEKLAKKAGLTVHKKNGTFELK [T14G] | 0.32 kcal/mol |
| TKIIVNGKTFTAPCEEEAQKIAEKLAKKAGLTVHKKNGTFELK [T14C] | 0.682 kcal/mol |
| TKIIVNGKTFTAPEEEEAQKIAEKLAKKAGLTVHKKNGTFELK [T14E] | -0.71 kcal/mol |
| TKIIVNGKTFTAPFEEEAQKIAEKLAKKAGLTVHKKNGTFELK [T14F] | -0.544 kcal/mol |
| TKIIVNGKTFTAPSEEEAQKIAEKLAKKAGLTVHKKNGTFELK [T14S] | 0.86 kcal/mol |
| TKIIVNGKTFTAPMEEEAQKIAEKLAKKAGLTVHKKNGTFELK [T14M] | -0.226 kcal/mol |
| TKIIVNGKTFWAPTEEEAQKIAEKLAKKAGLTVHKKNGTFELK [T11W] | 1.68 kcal/mol |
| TKIIVNGKTFQAPTEEEAQKIAEKLAKKAGLTVHKKNGTFELK [T11Q] | 0.319 kcal/mol |
| TKIIVNGKTFVAPTEEEAQKIAEKLAKKAGLTVHKKNGTFELK [T11V] | 0.762 kcal/mol |
| TKIIVNGKTFSAPTEEEAQKIAEKLAKKAGLTVHKKNGTFELK [T11S] | 0.624 kcal/mol |
| TKIIVNGKTFYAPTEEEAQKIAEKLAKKAGLTVHKKNGTFELK [T11Y] | 1.42 kcal/mol |
| TKIIVNGKTFRAPTEEEAQKIAEKLAKKAGLTVHKKNGTFELK [T11R] | 0.493 kcal/mol |

| Variant | folding stability dG |
| --- | --- |
| TKIIVNGKTFTAATEEEAQKIAEKLAKKAGLTVHKKNGTFELK [P13A] | 0.804 kcal/mol |
| TKIIVNGKTFTAQTEEEAQKIAEKLAKKAGLTVHKKNGTFELK [P13Q] | 0.651 kcal/mol |
| TKIIVNGKTFTAITEEEAQKIAEKLAKKAGLTVHKKNGTFELK [P13I] | 0.41 kcal/mol |
| TKIIVNGKTFTATTEEEAQKIAEKLAKKAGLTVHKKNGTFELK [P13T] | 0.634 kcal/mol |
| TKIIVNGKTFTAFTEEEAQKIAEKLAKKAGLTVHKKNGTFELK [P13F] | 0.391 kcal/mol |
| TKIIVNGKTFTAWTEEEAQKIAEKLAKKAGLTVHKKNGTFELK [P13W] | 0.532 kcal/mol |
| TKIIVNGKTFTALTEEEAQKIAEKLAKKAGLTVHKKNGTFELK [P13L] | 0.492 kcal/mol |
| TKIIVNGKTFTARTEEEAQKIAEKLAKKAGLTVHKKNGTFELK [P13R] | 0.954 kcal/mol |
| TKIIVNGKTFTADTEEEAQKIAEKLAKKAGLTVHKKNGTFELK [P13D] | 0.664 kcal/mol |
| TKIIVNGKTFTAGTEEEAQKIAEKLAKKAGLTVHKKNGTFELK [P13G] | 0.731 kcal/mol |
| TKIIVNGKTFTAHTEEEAQKIAEKLAKKAGLTVHKKNGTFELK [P13H] | 0.651 kcal/mol |
| TKIIVNGKTFTASTEEEAQKIAEKLAKKAGLTVHKKNGTFELK [P13S] | 0.761 kcal/mol |
| TKIIVNGKTFTAVTEEEAQKIAEKLAKKAGLTVHKKNGTFELK [P13V] | 0.451 kcal/mol |
| TKIIVNGKTFTAYTEEEAQKIAEKLAKKAGLTVHKKNGTFELK [P13Y] | 0.302 kcal/mol |
| TKIIVNGKTFTANTEEEAQKIAEKLAKKAGLTVHKKNGTFELK [P13N] | 0.67 kcal/mol |
| TKIIVNGKTFTACTEEEAQKIAEKLAKKAGLTVHKKNGTFELK [P13C] | 0.981 kcal/mol |
| TKIIVNGKTFTAKTEEEAQKIAEKLAKKAGLTVHKKNGTFELK [P13K] | 0.854 kcal/mol |
| TKIIVNGKTFTAETEEEAQKIAEKLAKKAGLTVHKKNGTFELK [P13E] | 0.598 kcal/mol |
| TKIIVNGKTFTAMTEEEAQKIAEKLAKKAGLTVHKKNGTFELK [P13M] | 0.526 kcal/mol |
